The values that follow come from paper PMC9122904, “Insights into the client protein release mechanism of the ATP-independent chaperone Spy” (Nature Communications, 2022).

As a reminder, the koff is the first-order rate constant of dissociation. By Kd is commonly meant the free concentration of one partner at which half of the binding sites on the other are occupied at equilibrium, for simple one-to-one binding.

Test in all cases: BLI; Octet RED96; client biotinylated and loaded on streptavidin sensors; Spy or Spy variant in solution at 0.25, 0.5, 1, 1.5 and 2 μM; 40 mM HEPES, 150 mM NaCl, pH 7.5; Kd calculated as koff/kon
Details in all cases: both partners purified

For assay [1], the target named is T1, Spy_(21-130) (UniProt P77754 44-153).
T1 construct: Spy chaperone, residues 21-130; source: E. coli BL21 (DE3), purified (Ni-NTA, cation exchange, SEC); not shown: His6, N-terminal, cleaved; SUMO, N-terminal, cleaved
T1 sequence (looked up): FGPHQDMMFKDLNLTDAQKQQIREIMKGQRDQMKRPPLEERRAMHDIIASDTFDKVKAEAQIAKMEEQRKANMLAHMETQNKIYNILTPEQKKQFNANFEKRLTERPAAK
A digest of the protocol:
(§1)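 Client proteins were biotinylated with EZ-link NHS-biotin at a 1:1 molar ratio, loaded onto streptavidin sensors, and measured by biolayer interferometry on an Octet RED96. The loaded sensors were dipped into 40 mM HEPES, 150 mM NaCl, pH 7.5 holding the analyte protein at 0.25, 0.5, 1, 1.5 or 2 μM, then moved to buffer without it. Fitting the wavelength-shift association and dissociation curves in SigmaPlot 12.0 gave the observed association rate and koff, kon was taken from the observed rate plotted against analyte concentration, and Kd was calculated as koff/kon.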

The target in assay [2] is T2, Spy_(29-127) (UniProt P77754 52-150).
T2 construct: Spy chaperone, residues 29-127; source: E. coli BL21 (DE3), purified (Ni-NTA, cation exchange, SEC); not shown: His6, N-terminal, cleaved; SUMO, N-terminal, cleaved
T2 sequence (looked up): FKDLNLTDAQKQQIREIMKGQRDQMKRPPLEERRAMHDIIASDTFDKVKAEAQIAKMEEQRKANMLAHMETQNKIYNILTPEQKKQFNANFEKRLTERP
The gist of the method:
as §1

In assay [3] the target is T3, Spy_(29-130) (UniProt P77754 52-153).
T3 construct: Spy chaperone, residues 29-130; source: E. coli BL21 (DE3), purified (Ni-NTA, cation exchange, SEC); not shown: His6, N-terminal, cleaved; SUMO, N-terminal, cleaved
T3 sequence (looked up): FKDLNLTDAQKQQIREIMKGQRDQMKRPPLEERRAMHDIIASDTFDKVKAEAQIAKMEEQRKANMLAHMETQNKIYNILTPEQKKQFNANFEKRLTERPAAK
A digest of the protocol:
as §1

For assay [4], the target named is T4, Spy_(24-127) (UniProt P77754 47-150).
T4 construct: Spy chaperone, residues 24-127; source: E. coli BL21 (DE3), purified (Ni-NTA, cation exchange, SEC); not shown: His6, N-terminal, cleaved; SUMO, N-terminal, cleaved
T4 sequence (looked up): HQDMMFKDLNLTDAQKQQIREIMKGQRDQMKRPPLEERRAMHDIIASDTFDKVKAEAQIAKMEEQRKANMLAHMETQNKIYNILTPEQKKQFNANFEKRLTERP
A digest of the protocol: as §1

Assay [5] has as its target T5, Spy_(27-130) (UniProt P77754 50-153).
T5 construct: Spy chaperone, residues 27-130; source: E. coli BL21 (DE3), purified (Ni-NTA, cation exchange, SEC); not shown: His6, N-terminal, cleaved; SUMO, N-terminal, cleaved
T5 sequence (looked up): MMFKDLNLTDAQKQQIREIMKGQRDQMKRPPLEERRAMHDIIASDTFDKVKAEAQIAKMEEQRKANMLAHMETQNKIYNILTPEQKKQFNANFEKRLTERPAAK
A digest of the protocol: as §1

Assay [6] deals with T6, Spy_(27-124) (UniProt P77754 50-147).
T6 construct: source: E. coli BL21 (DE3), purified (Ni-NTA, cation exchange, SEC); not shown: His6, N-terminal, cleaved; SUMO, N-terminal, cleaved
T6 sequence (looked up): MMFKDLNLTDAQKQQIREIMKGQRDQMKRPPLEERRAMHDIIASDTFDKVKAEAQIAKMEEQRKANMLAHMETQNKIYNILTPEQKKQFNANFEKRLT
The gist of the method: as §1

The target of assay [7] is T7, Spy_(24-124) (UniProt P77754 47-147).
T7 construct: source: E. coli BL21 (DE3), purified (Ni-NTA, cation exchange, SEC); not shown: His6, N-terminal, cleaved; SUMO, N-terminal, cleaved
T7 sequence (looked up): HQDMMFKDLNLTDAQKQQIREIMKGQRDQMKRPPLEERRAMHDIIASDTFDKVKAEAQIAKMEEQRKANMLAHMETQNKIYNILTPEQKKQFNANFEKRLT
A digest of the protocol:
as §1

The target in assay [8] is T8, Spy_(29-124) K121D R122D (UniProt P77754 52-147, K121D | R122D).
T8 construct: source: E. coli BL21 (DE3), purified (Ni-NTA, cation exchange, SEC); not shown: His6, N-terminal, cleaved; SUMO, N-terminal, cleaved
T8 sequence (looked up): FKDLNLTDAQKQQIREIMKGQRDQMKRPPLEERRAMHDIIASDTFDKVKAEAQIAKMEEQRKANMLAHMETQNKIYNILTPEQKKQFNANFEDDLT

B1: Im7 H40W L53A I54A (natural protein)
chain: MELKNSISDYTEAEFVQLLKEIEKENVAATDDVLDVLLEWFVKITEHPDGTDAAYYPSDNRDDSPEGIVKEIKEWRAANGKPGFKQG
modifications: biotin (EZ-link NHS-biotin, 1:1 molar ratio of biotin to protein)
notes: Im7 (colicin E7 immunity protein) with H40W L53A I54A; Spy was made with an N-terminal His6-SUMO tag that was cleaved; also called Im7AAW; partially folded client; source: purified by a similar procedure to Spy
For the molecule B1, the koff is 0.461 s⁻¹ in assay [1]; 0.095 s⁻¹ in assay [2]; 0.0937 s⁻¹ in assay [3]; 0.39 s⁻¹ in assay [4]; 0.092 s⁻¹ in assay [5]; 0.089 s⁻¹ in assay [6]. In addition, the koff in assay [7] is 0.423 s⁻¹. For the same molecule, in assay [8], the Kd is 1850 nM.
